The target in data set [1] is DFA III hydrolysis enzyme (DFA IIIase) from Arthrobacter aurescens SK8.001 (Arthrobacter aurescens SK8.001). In words: SEC; gel filtration by HPLC, TSK G2000SWxl column, 0.1 M phosphate buffer pH 6.7 with 0.05% NaN3 and 0.1 M Na2SO4, 1 mL/min, UV 280 nm; native mass about 145 kDa against 49 kDa subunit by SDS-PAGE; mass markers for calibration.
Substrate in data set [2]: OC[C@H]1O[C@@]2(CO[C@]3(CO)O[C@H](CO)[C@@H](O)[C@@H]3O2)[C@@H](O)[C@@H]1O
In words: HPLC (refractive index) of inulobiose produced, nonlinear Michaelis-Menten fit. Type of data set: biochemical, Paenarthrobacter aurescens. Particulars: 50 mM citrate buffer pH 5.5, 55°C, 10 min, DFA III 2.0-50 mM.

Our source for the stoichiometry N and Km values is publication PMC4640833, “Identification of a Novel Di-D-Fructofuranose 1,2’:2,3’ Dianhydride (DFA III) Hydrolysis Enzyme from Arthrobacter aurescens SK8.001” (PLoS ONE, 2015).

In the case of “DFA III hydrolysis enzyme (DFA IIIase) from Arthrobacter aurescens SK8.001”, in data set [1], the stoichiometry N worked out at 3.

B1: AaDFA IIIase (Paenarthrobacter aurescens) (protein)
chain: MSNSNYYNVTAWPIGDPFTGVGEVINSIIADIKDRQTATDENDGGKPGAVIYLPPGDYRLRTQVVIDVSFLRIEGSGHGFTSSSIRFNAPEAEWPDLHELWPGGSRVMVDLPIIDDERPSDLLPDQESKGAAFYVERSGSPRISSVEFSNFCIDGLHFTPDGSGLPAENSYVNGKTGIYVASANDSFRVNGMGFVYLENALTICKADALSVHDNFIAECGSCIELRGWGQASKITDNLIGAGFKGHSIYAQNHGGLLITANNIFPRGASSIHFEGVTRSSVSNNRLHSFYPGMVVLAEGSSENLVSTNHFLRDHEPWTPFLGVDNGRDDLYGILRISGSNNSVIGNHFSEVVDAQSIWPSGATPVIIRLAEGTGNFVSNNHVVAMDVRSASSDSCFAAQVDALLTTGASDGLAVTAVLVDSTSARNTILDSGNDAQVIADRGANAVRATPTVGFAAAESTQSSQGAGIPR
notes: full length 470 residues (49,879 Da), no signal peptide, C-terminal 6xHis tag kept, pET-22b(+) in E. coli BL21(DE3), homotrimer 145 kDa
For the molecule B1, in data set [2], the Km is reported as 30.7 ± 4.3 mM.
